Measurements taken from the supplement of paper PMC10567573.
± gives the standard deviation.

Test: protein stability index of a GFP-peptide fusion (GPS, HEK-293T) (PSI 1-6); higher = more stable
[1] = treatment: DMSO, c terminus: a fixed tail appended
[2] = treatment: MLN4924 1 uM, 8 h, c terminus: a fixed tail appended
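Also: 24-mer peptide tiles fused after GFP, lentivirally expressed, FACS-sorted into six equal bins by GFP/DsRed ratio, decoded by Illumina sequencing, PSI is the read-weighted mean bin number.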

Sequence: TLLSVLKREAGNLTKATAPDQKSS [SSNA1]
- protein stability index [1]: 2.69 ± 0.13
- protein stability index [2]: 2.83 ± 0.3

Sequence: EPASAREAPASVVPFVRVKREREV [USP39]
- protein stability index [1]: 4.93 ± 0.3
- protein stability index [2]: 4.87 ± 0.58

Sequence: RDRLLNRYRQAGSSGPGNSQNSFL [RPAIN]
- protein stability index [1]: 3.36 ± 0.32
- protein stability index [2]: 3.56 ± 0.38

Sequence: QFAAEYTSKNSSTQDPSQPNSTKN [LCOR]
- protein stability index [1]: 5.22 ± 0.15
- protein stability index [2]: 5.36 ± 0.08

Sequence: SNVRGSLNVNLNSVVLRRARGGAV [DUSP5]
- protein stability index [1]: 3.74 ± 0.24
- protein stability index [2]: 4.1 ± 0.29

Sequence: LVAEILPAPGKLLGPCVVGYGIYY [SAT2]
- protein stability index [1]: 2.66 ± 0.94
- protein stability index [2]: 2.53 ± 0.44

Sequence: PTTSFLSISKLSPFSEFFKLRFNR [PWWP2B]
- protein stability index [1]: 2.07 ± 0.33
- protein stability index [2]: 2.13 ± 0.36

Sequence: SQLSMKAGLENTVAETECRYALQL [KRT13]
- protein stability index [1]: 3.37 ± 0.2
- protein stability index [2]: 3.35 ± 0.25

Sequence: MRLSSSPPRGPQQLSSFGSVDWLS [VENTX]
- protein stability index [1]: 2.99 ± 0.059
- protein stability index [2]: 3.15 ± 0.3

Sequence: GVCMGLVAAACACGFTVAQIITSL [OR10K2]
- protein stability index [1]: 3.21 ± 0.34
- protein stability index [2]: 3.04 ± 0.69

Sequence: GGGSYGKLFESVECYDPRTQQWTA [GAN]
- protein stability index [1]: 3 ± 0.13
- protein stability index [2]: 3.13 ± 0.29

Sequence: TVGVYEAAKLLNVDPDNVVLCLLA [GADD45A]
- protein stability index [1]: 2.26 ± 0.17
- protein stability index [2]: 2.4 ± 0.22

Sequence: PSNRSFFSEIISSISDVKFSHSGR [PPP2R2B]
- protein stability index [1]: 2.73 ± 0.44
- protein stability index [2]: 2.78 ± 0.39

Sequence: IKPPCIPNGKENFSGGTSLWQNI [CAMK2D]
- protein stability index (treatment: DMSO, c terminus: native): 3.2 ± 0.13
- protein stability index (treatment: MLN4924 1 uM, 8 h, c terminus: native): 3.2 ± 0.21

Sequence: FEFRPELVNDDDEEADDTRYTQGT [ZC3H15]
- protein stability index [1]: 5.44 ± 0.25
- protein stability index [2]: 5.28 ± 0.2

Sequence: MSAKLGKSSSLLTQTSEECNGILT [ZNF396]
- protein stability index [1]: 3.99 ± 0.16
- protein stability index [2]: 4.2 ± 0.22

Sequence: VAERKYTQEQARKEFQQVFIPECN [SMOC2]
- protein stability index [1]: 4.38 ± 0.19
- protein stability index [2]: 4.41 ± 0.23

Sequence: DDSDTQQVVVLVRDNGDPSLSSTA [PCDHGC5]
- protein stability index [1]: 4.76 ± 0.16
- protein stability index [2]: 4.83 ± 0.22

Sequence: EEGPTVVLNPHPSLGYKEIRKGES [CHGA]
- protein stability index [1]: 4.96 ± 0.29
- protein stability index [2]: 5.03 ± 0.27

Sequence: WLISEEEKTQKNQCWKSLFIDTYS [FBXO3]
- protein stability index [1]: 2.16 ± 0.3
- protein stability index [2]: 2.45 ± 0.33

Sequence: SWPRASPASGASSIKPEASQMPPP [SCNN1D]
- protein stability index [1]: 4.62 ± 0.27
- protein stability index [2]: 4.63 ± 0.38

Sequence: CHHGLVADSLQASMEKDATLNVDR [DLC1]
- protein stability index [1]: 4.35 ± 0.12
- protein stability index [2]: 4.47 ± 0.25

Sequence: SYVRSRKRLREEEAARLFKQIVSA [TRIB1]
- protein stability index [1]: 2.53 ± 0.38
- protein stability index [2]: 3.09 ± 0.27

Sequence: HLSSQQASGQSYSSREVFTSSSSS [KRT16]
- protein stability index [1]: 4.63 ± 0.21
- protein stability index [2]: 4.58 ± 0.17

Sequence: LKSAKDLPPDALIIEYRGKFMLRE [KMT2E]
- protein stability index [1]: 2.15 ± 0.4
- protein stability index [2]: 2.38 ± 0.43

Sequence: RAAAAAAVAAATAAVEGSGGSGGG [KCNA4]
- protein stability index [1]: 4.88 ± 0.26
- protein stability index [2]: 4.9 ± 0.28

Sequence: LMPGVPPLMPGMPPVMPGMPPGLH [ZNF207]
- protein stability index [1]: 3.02 ± 0.33
- protein stability index [2]: 2.99 ± 0.32

Sequence: DNLLAAADKYALERLKVMCEEALC [SPOPL]
- protein stability index [1]: 2.75 ± 0.32
- protein stability index [2]: 2.78 ± 0.15

Sequence: GLQAQILHCYRDRPHEVLLCSDLV [CHCHD6]
- protein stability index [1]: 2.39 ± 0.39
- protein stability index [2]: 2.16 ± 0.33

Sequence: DIHVGLRGVPLLEWETEVEMDKLR [CLCN6]
- protein stability index [1]: 3.98 ± 0.23
- protein stability index [2]: 3.96 ± 0.41

Sequence: KDEPSKYNQQQALIDQRYFQVLCS [CEP70]
- protein stability index [1]: 3 ± 0.063
- protein stability index [2]: 3.13 ± 0.24

Sequence: HESQQLATETQALAQRTQQDSTRT [TEKT4]
- protein stability index [1]: 5.41 ± 0.23
- protein stability index [2]: 5.43 ± 0.074

Sequence: VRLQERTSGGLLSEAPNEKLFFVD [NOP53]
- protein stability index [1]: 3.5 ± 0.32
- protein stability index [2]: 3.34 ± 0.33

Sequence: FFPMGDEGASSQIGRAAGTGFTVN [HDAC6]
- protein stability index [1]: 3.46 ± 0.17
- protein stability index [2]: 3.69 ± 0.15

Sequence: APQNSFSAKLAPHYFHSISYKIEE [KCNK9]
- protein stability index [1]: 3.21 ± 0.12
- protein stability index [2]: 3.34 ± 0.16

Sequence: PVFLHSQMLWELVLLGEPLVVMAP [DENND6A]
- protein stability index [1]: 2.81 ± 0.63
- protein stability index [2]: 2.98 ± 0.69

Sequence: DAAHPTNVQRLAEPSQMLKHAVVN [CTNNB1]
- protein stability index [1]: 4.62 ± 0.19
- protein stability index [2]: 4.62 ± 0.15

Sequence: STYRPLPDPSVWSRRYTEMALPFF [MYORG]
- protein stability index [1]: 2.36 ± 0.4
- protein stability index [2]: 2.22 ± 0.13

Sequence: DSDVPEQRDSKCKVKWTHEEDEQL [MYBL2]
- protein stability index [1]: 5.44 ± 0.32
- protein stability index [2]: 4.94 ± 0.76

Sequence: EVKLLLSSETPIEGKNMSFVNDLT [APMAP]
- protein stability index [1]: 3.35 ± 0.23
- protein stability index [2]: 3.56 ± 0.13

Sequence: EQDRIPEVHVPPSSAVSGVKEWFG [MIA2]
- protein stability index [1]: 4.35 ± 0.099
- protein stability index [2]: 4.46 ± 0.35

Sequence: LISHVLEQNQEGDAAYRKALDLAR [AUH]
- protein stability index [1]: 3.38 ± 0.55
- protein stability index [2]: 3.09 ± 0.19

Sequence: QTTTAYKKTHETLSHAGQKATAAF [TPD52L1]
- protein stability index [1]: 4.08 ± 0.34
- protein stability index [2]: 3.98 ± 0.27

Sequence: VEKLKQMQEFFGLKVTGKPDAETL [MMP1]
- protein stability index [1]: 3.63 ± 0.23
- protein stability index [2]: 3.83 ± 0.16

Sequence: GEELADVGGVLRGLNHSLSYDVAL [SCARA5]
- protein stability index [1]: 3.4 ± 0.17
- protein stability index [2]: 3.41 ± 0.21

Sequence: KGCKVTLPEKPVKLASHTRDTTGV [FBF1]
- protein stability index [1]: 4.21 ± 0.24
- protein stability index [2]: 4.58 ± 0.17

Sequence: LHEALLEYEAGRAGPGGGAERRRA [ESRRA]
- protein stability index [1]: 4.27 ± 0.34
- protein stability index [2]: 4.82 ± 0.18

Sequence: TNLKETYRCIREARYTMPSSLLAP [PLK2]
- protein stability index [1]: 2.34 ± 0.54
- protein stability index [2]: 2.3 ± 0.08

Sequence: EVIYPQHSKLTDREKTNICYLSFP [DENND6A]
- protein stability index [1]: 2.2 ± 0.43
- protein stability index [2]: 2.54 ± 0.38

Sequence: RPASSGGAHTLVNHGYAEPAAGRE [KCNA3]
- protein stability index [1]: 4.7 ± 0.44
- protein stability index [2]: 4.86 ± 0.23

Sequence: GEFRTGKTQICHTLAVTCQLPIDR [RAD51]
- protein stability index [1]: 2.73 ± 0.52
- protein stability index [2]: 3.02 ± 0.29

Sequence: SRLLGAAAGQRSRPSTYYELLGVH [DNAJC4]
- protein stability index [1]: 2.54 ± 0.57
- protein stability index [2]: 2.52 ± 0.42

Sequence: LCWDPVQRVLFSGSSDHSVIMWDI [WDFY2]
- protein stability index [1]: 2.26 ± 0.34
- protein stability index [2]: 1.93 ± 0.45

Sequence: SRSNSRSRSYSPRRSRGSPRYSPR [SRSF1]
- protein stability index [1]: 5.28 ± 0.26
- protein stability index [2]: 5.56 ± 0.065

Sequence: FRDAAEEGGTAVTGGQTVVNPWII [SEPHS2]
- protein stability index [1]: 3.45 ± 0.2
- protein stability index [2]: 3.54 ± 0.26

Sequence: RGIHNIQKRYHCKECGKVFSQSAG [ZSCAN9]
- protein stability index [1]: 2.58 ± 0.27
- protein stability index [2]: 2.78 ± 0.24

Sequence: RLDKHLYVIGGRNETGYLSSVECY [KLHL14]
- protein stability index [1]: 2.28 ± 0.17
- protein stability index [2]: 2.14 ± 0.2

Sequence: DQTGKEVADRWYSEIKNYNFQQPG [GLIPR2]
- protein stability index [1]: 4.15 ± 0.34
- protein stability index [2]: 3.88 ± 0.31

Sequence: DATLSLKQTILDKEEKQRRNVAKN [TTC32]
- protein stability index [1]: 4.99 ± 0.28
- protein stability index [2]: 4.91 ± 0.19

Sequence: FIYSTWKGRTIYLEDIYVMPEYRG [SAT2]
- protein stability index [1]: 3.21 ± 0.44
- protein stability index [2]: 2.8 ± 0.52

Sequence: PSCRHEVVLDRHGVYGLQRNLLVE [TRIM55]
- protein stability index [1]: 2.32 ± 0.36
- protein stability index [2]: 2.3 ± 0.47

Sequence: GIFKIEDSAQVARLWGIRKNRPAM [SPDEF]
- protein stability index [1]: 2.71 ± 0.4
- protein stability index [2]: 2.86 ± 0.3

Sequence: PGEEKFENLEGVPSVCSENIHPQV [ZNF263]
- protein stability index [1]: 4.96 ± 0.23
- protein stability index [2]: 4.96 ± 0.38

Sequence: EAPKYHIPYWVAYYLALLLSLLVM [NSDHL]
- protein stability index [1]: 2.63 ± 0.36
- protein stability index [2]: 2.53 ± 0.69

Sequence: TLNVIELNVQKTVDYTGQAKAQVR [STX11]
- protein stability index [1]: 2.93 ± 0.28
- protein stability index [2]: 3.19 ± 0.31

Sequence: GLAFIAFTEAMTHFPASPFWSVMF [SLC6A17]
- protein stability index [1]: 3.15 ± 0.1
- protein stability index [2]: 3.13 ± 0.51

Sequence: QEMQQKLVELSAENEKLHQRVEQL [CEBPD]
- protein stability index [1]: 4.84 ± 0.1
- protein stability index [2]: 4.74 ± 0.54

Sequence: LDKMLDPQVWREAATQVFFALGLG [SLC6A17]
- protein stability index [1]: 2.52 ± 0.68
- protein stability index [2]: 2.25 ± 0.28

Sequence: YKCLECGKAFSQNSGLINHQRIHT [ZNF24]
- protein stability index [1]: 4.95 ± 0.23
- protein stability index [2]: 4.57 ± 0.26

Sequence: LVGIFILAVSRPRSSPDDLKALTR [SCARA5]
- protein stability index [1]: 2.84 ± 0.39
- protein stability index [2]: 2.84 ± 0.69
